± gives the uncertainty stated by the source.
B1: DnaJ homolog subfamily C member 2, residues 451 to 503; numbered along this chain, Q99543 (parent)
chain: SKNWSEDDLQLLIKAVNLFPAGTNSRWEVIANYMNIHSSSGVKRTAKDVIGKA

Variants of: B1
Test: abundance fitness (aPCA) (normalised: wild type 0, dead -1); higher = more abundant; growth selection in yeast, the domain comes from the species named
Conditions: Homo sapiens

Variant	abundance fitness
SKNWSEDDLQLLIKAVNLFPAGTNSRWEVIANYMNIHSSSGVKRTAKNVIGKA [D48N]	-0.623 ± 0.068
SKNWSEDDLQLLIKAVNLFPAGTNSRWEVIANYMNIHSSSGVKRTAKCVIGKA [D48C]	-0.393 ± 0.1
SKNWSEDDLQLLIKAVNLFPAGTNSRWEVIANYMNIHSSSGVKRTAKGVIGKA [D48G]	-0.554 ± 0.067
SKNWSEDDLMLLIKAVNLFPAGTNSRWEVIANYMNIHSSSGVKRTAKDVIGKA [Q10M]	-0.34 ± 0.08
SKNWSEDDLFLLIKAVNLFPAGTNSRWEVIANYMNIHSSSGVKRTAKDVIGKA [Q10F]	-0.483 ± 0.083
SKNWSEDDLLLLIKAVNLFPAGTNSRWEVIANYMNIHSSSGVKRTAKDVIGKA [Q10L]	-0.141 ± 0.056
SKNWSEDDLVLLIKAVNLFPAGTNSRWEVIANYMNIHSSSGVKRTAKDVIGKA [Q10V]	-0.206 ± 0.06
SKNWSEDDLQLLIKAVNLFPAGTNSRWEVIANYMNIHSSSGVKRTAKDVIRKA [G51R]	0 ± 0.06
SKNWSEDDLQLLIKAVNLFPAGTNSRWEVIANYMNIHSSSGVKRTAKDVIKKA [G51K]	0.12 ± 0.11
SKNWSEDDLQLLIKAVNLFPAGDNSRWEVIANYMNIHSSSGVKRTAKDVIGKA [T23D]	-0.165 ± 0.18
SKNWSEDDLQLLIKAVNLFPAGSNSRWEVIANYMNIHSSSGVKRTAKDVIGKA [T23S]	-0.276 ± 0.11
SKNWSEDDLQLLIKAVNLFPAGKNSRWEVIANYMNIHSSSGVKRTAKDVIGKA [T23K]	-0.587 ± 0.2
SKNWSEDDLQLLIKAVNLFPAGTGSRWEVIANYMNIHSSSGVKRTAKDVIGKA [N24G]	-0.276 ± 0.054
SKNWSEDDLQLLIKAVNLFPAGTRSRWEVIANYMNIHSSSGVKRTAKDVIGKA [N24R]	-0.045 ± 0.06
SKNWSEDDLQLLIKAVNLFPAGTTSRWEVIANYMNIHSSSGVKRTAKDVIGKA [N24T]	-0.024 ± 0.089
SKNWSEDDLQLLIKAVNLFPAGTMSRWEVIANYMNIHSSSGVKRTAKDVIGKA [N24M]	-0.056 ± 0.086
SKNWSEDDLQLLIKAVNLFPAGTNSSWEVIANYMNIHSSSGVKRTAKDVIGKA [R26S]	-0.934 ± 0.29
SKNWSEDDLQLLIKAVNLFPAVTNSRWEVIANYMNIHSSSGVKRTAKDVIGKA [G22V]	-0.28 ± 0.056
SKNWSEDDLQLLIKAVNLFPAITNSRWEVIANYMNIHSSSGVKRTAKDVIGKA [G22I]	-0.194 ± 0.094
SKNWSEDDLQLLIKAVNLFPALTNSRWEVIANYMNIHSSSGVKRTAKDVIGKA [G22L]	-0.484 ± 0.062
SKNWSEDDLQLLIKAVNLFPAGTNSRWEVIANYMNIHSSSGVKRTAKDWIGKA [V49W]	-0.758 ± 0.11
SKNWSEDDLQLLIKAVNLFPAGTNSRWEVIANYMNIHSSSGVKRTAKDNIGKA [V49N]	-0.938 ± 0.15
SKNWSEDDLQLLIKAVNLFPAGTNSRWEVIANYMNIHSSSGVKRTAKDLIGKA [V49L]	-0.258 ± 0.067
SKNWSEDCLQLLIKAVNLFPAGTNSRWEVIANYMNIHSSSGVKRTAKDVIGKA [D8C]	-0.732 ± 0.086
SKNWSEDTLQLLIKAVNLFPAGTNSRWEVIANYMNIHSSSGVKRTAKDVIGKA [D8T]	-0.186 ± 0.071

Variant	abundance fitness
SKNWSEDILQLLIKAVNLFPAGTNSRWEVIANYMNIHSSSGVKRTAKDVIGKA [D8I]	-0.534 ± 0.091
SFNWSEDDLQLLIKAVNLFPAGTNSRWEVIANYMNIHSSSGVKRTAKDVIGKA [K2F]	-0.314 ± 0.17
SKNWSEDDLQLLIKAVNLFPAGTNSRWEVQANYMNIHSSSGVKRTAKDVIGKA [I30Q]	-1 ± 0.1
SKNWSEDDLQLLIKAVNCFPAGTNSRWEVIANYMNIHSSSGVKRTAKDVIGKA [L18C]	-0.222 ± 0.088
SKNWSEDDLQLLIKAVNYFPAGTNSRWEVIANYMNIHSSSGVKRTAKDVIGKA [L18Y]	-0.173 ± 0.096
SKPWSEDDLQLLIKAVNLFPAGTNSRWEVIANYMNIHSSSGVKRTAKDVIGKA [N3P]	-0.159 ± 0.083
LKNWSEDDLQLLIKAVNLFPAGTNSRWEVIANYMNIHSSSGVKRTAKDVIGKA [S1L]	-0.32 ± 0.11
SKNWSEDDLQLLIKAVNLFPAGTNSRWEVIANYMNIHTSSGVKRTAKDVIGKA [S38T]	-0.116 ± 0.066
SKNWSEDDLQLLIKAVNLFPAGTNSRWEVIANYMNIHASSGVKRTAKDVIGKA [S38A]	-0.224 ± 0.059
SKNWSEDDLQLLIKAVNLFPAGTNSRWEVIANYMNIHSSSGVKRTAKDVVGKA [I50V]	0.03 ± 0.066
SKNWSEDDLQLLIKAVNLFPAGTNSRWEVIANYMNIHSSSGVKRTAKDVYGKA [I50Y]	-0.006 ± 0.098
SKNWSEDDLQLLIKAVNLFPAGTNSRWEVIANYMNIHSSSGVKRTAKDVNGKA [I50N]	-0.229 ± 0.096
SKNWSEDDLQLLIKAVNLKPAGTNSRWEVIANYMNIHSSSGVKRTAKDVIGKA [F19K]	-0.961 ± 0.14
SKNWSEDDLQLLIKAVNLFPAGTNSRWEVIAQYMNIHSSSGVKRTAKDVIGKA [N32Q]	-0.103 ± 0.089
SKNWSEDDLQLLIKAVNLFPAGTNSRWEVIAMYMNIHSSSGVKRTAKDVIGKA [N32M]	-0.302 ± 0.088
SKNWSEDDLQLLIKAVNLFPAGTNSRWEVIATYMNIHSSSGVKRTAKDVIGKA [N32T]	-0.13 ± 0.077
SKNWSEDDLQLLIKAVNLFPAGTNSRWEVIACYMNIHSSSGVKRTAKDVIGKA [N32C]	-0.524 ± 0.11
SKNWSEDDLQLLIKAVNLFPAGTNSRWMVIANYMNIHSSSGVKRTAKDVIGKA [E28M]	-0.44 ± 0.089
SKNWSEDDLQLLIKAVNLFPAGTNSRWTVIANYMNIHSSSGVKRTAKDVIGKA [E28T]	-0.351 ± 0.095
SKNWSEDDLQLLIKAVNLFPAGTNSRWEVIANDMNIHSSSGVKRTAKDVIGKA [Y33D]	-0.977 ± 0.12
SKNWSEDDLQLLIKAVNLFPAGTNNRWEVIANYMNIHSSSGVKRTAKDVIGKA [S25N]	-0.384 ± 0.13
SKNWSEDDLQLLIKAVNLFPAGTNQRWEVIANYMNIHSSSGVKRTAKDVIGKA [S25Q]	-0.235 ± 0.11
SKNWSEDDLQLLIKAVNLFPAGTNARWEVIANYMNIHSSSGVKRTAKDVIGKA [S25A]	-0.094 ± 0.061
SKNWSEDDLQLLIKAVNLFPAGTNSRWEVIANYMNIHSKSGVKRTAKDVIGKA [S39K]	-0.086 ± 0.086
SKNWSEDDLQLLIKAVNLFPAGTNSRWEVIANYMNIHSNSGVKRTAKDVIGKA [S39N]	-0.076 ± 0.1
